± gives the uncertainty stated by the source.
Test: self-splicing fitness, log relative to wild type (ln ratio); higher = more splicing; Tetrahymena group I intron in knt gene, E. coli kanamycin selection, DiMSum; sequences stand for … in CUCUCU…GGAGGGAAAAGUUAUCAGGCAUGCACCUGGUAGCUAGUCUUUAAACCAAUAGAUUGCAUCGGUUUAAAAGGCAAGACCGUCAAAUUGCGGGAAAGGGGUCAACAGCCGUUCAGUACCAAGUCUCAGGGGAAACUUUGAGAUGGCCUUGCAAAGGGUAUGGUAAUAAGCUGACGGACAUGGUCCUAACCACGCAGCCAAGUCCUAAGUCAACAGAUCUUCUGUUGAUAUGGAUGCAGUUCACAGACUAAAUGUCGGUCGGGGAAGAUGUAUUCUUCUCAUAAGAUAUAGUCGGACCUCUCCUUAAUGGGAGCUAGCGGAUGAAGUGAUGCAACACUGGAGCCGCUGGGAACUAAUUUGUAUGCGAAAGUAUAUUGAUUAGUUUUGGAGUACUCGUGGUCG
In short: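 Six replicate transformations of E. coli BL21(DE3) with a pET-22b(+) library were grown overnight at 37°C or 30°C. The library randomised all eight P1ex-region intron nucleotides, the intron lying in the knt kanamycin-resistance gene, and plates were LB agar with or without 25 μg/mL kanamycin plus 100 μg/mL carbenicillin, 50 μM IPTG and 0.2% rhamnose. Pooled colonies were amplicon-sequenced on an Illumina HiSeq 2500, and fitness is the DiMSum error-weighted combination of wild-type-normalised replicate fold changes, kanamycin versus none.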

| Sequence | self-splicing fitness (ln) (30 °C) | self-splicing fitness (ln) (37 °C) |
| --- | --- | --- |
| CGAGAGCAAUAUUACGUGGC | -4.31 ± 0.46 | -2.55 ± 0.26 |
| CUCCAGCAAUAUUACGAAUA | -3.91 ± 0.47 | -2.54 ± 0.28 |
| CUUUAGCAAUAUUACGACUA | – | -1.32 ± 0.42 |
| GGUGAGCAAUAUUACGAAAU | -2.21 ± 0.31 | -2.78 ± 0.38 |
| AAUAAGCAAUAUUACGAAGC | -3.57 ± 0.43 | – |
| AGGCAGCAAUAUUACGUACC | -0.0574 ± 0.12 | 0.0331 ± 0.15 |
| CGCGAGCAAUAUUACGCUAG | – | -1.39 ± 0.29 |
| UCACAGCAAUAUUACGACAA | -1.3 ± 0.13 | -0.0758 ± 0.096 |
| UCUGAGCAAUAUUACGACAG | -1.02 ± 0.12 | -1.04 ± 0.15 |
| CCGCAGCAAUAUUACGUGGA | -3.51 ± 0.23 | -2.43 ± 0.22 |
| UAUGAGCAAUAUUACGAAGA | -2.69 ± 0.44 | -1.81 ± 0.2 |
| GUUCAGCAAUAUUACGGCAU | -0.334 ± 0.067 | 0.567 ± 0.072 |
| CCGAAGCAAUAUUACGUGAU | -3.4 ± 0.13 | -2.84 ± 0.19 |
| GAUGAGCAAUAUUACGUCUG | -2.66 ± 0.19 | -2.96 ± 0.28 |
| UUGCAGCAAUAUUACGCGAU | -2.02 ± 0.29 | -2.6 ± 0.36 |
| AAUCAGCAAUAUUACGAGUU | -0.331 ± 0.049 | 0.000416 ± 0.074 |
| CAGCAGCAAUAUUACGCGCC | -1.71 ± 0.25 | -0.362 ± 0.22 |
| UUACAGCAAUAUUACGAGCC | -2.86 ± 0.44 | -1.13 ± 0.31 |
| UGCUAGCAAUAUUACGAGGG | -2.22 ± 0.15 | -2.43 ± 0.19 |
| AUAAAGCAAUAUUACGCGCA | 0.0901 ± 0.058 | -0.398 ± 0.075 |
| UUUUAGCAAUAUUACGGCCG | -0.37 ± 0.24 | – |
| UGGUAGCAAUAUUACGCAGG | -2.77 ± 0.3 | -2.82 ± 0.48 |
| UCUAAGCAAUAUUACGCCUA | – | -1.36 ± 0.26 |
| AUGGAGCAAUAUUACGGUGU | -2.12 ± 0.18 | -0.816 ± 0.24 |
| GAUGAGCAAUAUUACGUGCA | -1.14 ± 0.12 | -1.82 ± 0.15 |

| Sequence | self-splicing fitness (ln) (30 °C) | self-splicing fitness (ln) (37 °C) |
| --- | --- | --- |
| AGAAAGCAAUAUUACGCAAG | -1.66 ± 0.13 | -1.32 ± 0.18 |
| CUUAAGCAAUAUUACGGCGC | -3.46 ± 0.37 | -2.7 ± 0.28 |
| CCGUAGCAAUAUUACGCCAA | -3.21 ± 0.41 | -2.77 ± 0.4 |
| UACCAGCAAUAUUACGAGUC | -1.59 ± 0.12 | -1.24 ± 0.12 |
| GCUAAGCAAUAUUACGCGUU | -1.23 ± 0.083 | -0.649 ± 0.1 |
| AUUAAGCAAUAUUACGUCGC | -3.33 ± 0.22 | -2.8 ± 0.25 |
| UUGAAGCAAUAUUACGUAUU | -2.69 ± 0.12 | -0.933 ± 0.12 |
| CGCGAGCAAUAUUACGUCAA | -2.88 ± 0.31 | – |
| CCCCAGCAAUAUUACGCAUC | -3.84 ± 0.31 | -2.68 ± 0.3 |
| UAGGAGCAAUAUUACGACUG | -0.384 ± 0.096 | 0.363 ± 0.14 |
| ACCUAGCAAUAUUACGAGAU | -2.54 ± 0.091 | -1.3 ± 0.098 |
| GCUGAGCAAUAUUACGGUCA | -2.69 ± 0.15 | -2.2 ± 0.14 |
| UCCUAGCAAUAUUACGUCCA | -3.15 ± 0.48 | -1.56 ± 0.34 |
| GAGUAGCAAUAUUACGACCU | 0.288 ± 0.14 | -1.02 ± 0.16 |
| GCCCAGCAAUAUUACGUACA | -2.17 ± 0.1 | -0.789 ± 0.096 |
| CAGCAGCAAUAUUACGGAUG | -2.06 ± 0.097 | -1.48 ± 0.098 |
| GAUUAGCAAUAUUACGGAAG | -2.01 ± 0.24 | -2.18 ± 0.28 |
| UGGCAGCAAUAUUACGAGGA | -2.34 ± 0.34 | -1.75 ± 0.26 |
| CCCCAGCAAUAUUACGGGGG | -4.74 ± 0.16 | -2.67 ± 0.12 |
| AUAAAGCAAUAUUACGGCGG | -0.248 ± 0.062 | -0.197 ± 0.077 |
| AUAGAGCAAUAUUACGAUUC | -2.37 ± 0.28 | -1.08 ± 0.33 |
| AUUGAGCAAUAUUACGUCAU | -2.76 ± 0.14 | -2.12 ± 0.17 |
| CGUCAGCAAUAUUACGCGCG | -4.06 ± 0.39 | -2.19 ± 0.36 |
| AGCCAGCAAUAUUACGUGGU | -3.52 ± 0.14 | -3.58 ± 0.2 |
| UGGAAGCAAUAUUACGACAA | -1.46 ± 0.14 | -1.88 ± 0.17 |

| Sequence | self-splicing fitness (ln) (30 °C) | self-splicing fitness (ln) (37 °C) |
| --- | --- | --- |
| GGCAAGCAAUAUUACGUAGG | -1.09 ± 0.061 | -0.937 ± 0.088 |
| AUCUAGCAAUAUUACGGUUA | -0.746 ± 0.15 | -0.055 ± 0.12 |
| AUUGAGCAAUAUUACGUCGG | -4.24 ± 0.46 | -1.68 ± 0.39 |
| UACUAGCAAUAUUACGAAUC | -2.81 ± 0.18 | -3.38 ± 0.35 |
| GCAUAGCAAUAUUACGUUCA | -1.41 ± 0.11 | -0.882 ± 0.13 |
| UACUAGCAAUAUUACGAAGA | -2.32 ± 0.19 | -1.86 ± 0.25 |
| UGGAAGCAAUAUUACGGCAC | – | -1.36 ± 0.37 |
| GAGCAGCAAUAUUACGGUUG | -3.18 ± 0.17 | -1.99 ± 0.16 |
| ACGCAGCAAUAUUACGACCA | -1.49 ± 0.12 | -0.691 ± 0.15 |
| UCUAAGCAAUAUUACGAGGA | -3.5 ± 0.4 | -2.72 ± 0.44 |
| AGUAAGCAAUAUUACGUGUU | -3.49 ± 0.13 | -1.99 ± 0.18 |
| UUUGAGCAAUAUUACGACGG | -0.966 ± 0.16 | -0.751 ± 0.23 |
| AACGAGCAAUAUUACGACUG | -2.12 ± 0.16 | -0.348 ± 0.15 |
| UUCGAGCAAUAUUACGUACA | -2.27 ± 0.22 | -1.81 ± 0.15 |
| UCGUAGCAAUAUUACGUAGC | -2.27 ± 0.43 | – |
| UCAAAGCAAUAUUACGCUUC | -4.01 ± 0.23 | -2.02 ± 0.23 |
| UUUCAGCAAUAUUACGGAAU | -3.77 ± 0.23 | -2 ± 0.2 |
| UCCCAGCAAUAUUACGUAUG | -3.3 ± 0.16 | -2.2 ± 0.16 |
| CCCUAGCAAUAUUACGUCAU | -2.27 ± 0.13 | -3.11 ± 0.24 |
| UAAGAGCAAUAUUACGGGUA | -2.57 ± 0.2 | -1.59 ± 0.17 |
| AAACAGCAAUAUUACGAAGC | -3.98 ± 0.2 | -2.75 ± 0.18 |
| GCGAAGCAAUAUUACGUUGC | – | -1.98 ± 0.2 |
| UUCGAGCAAUAUUACGCUAG | -2.82 ± 0.26 | -2.05 ± 0.42 |
| GAACAGCAAUAUUACGACGC | -0.0786 ± 0.067 | 0.151 ± 0.088 |
| CCGUAGCAAUAUUACGUCGC | -3.45 ± 0.41 | -1.77 ± 0.26 |

| Sequence | self-splicing fitness (ln) (30 °C) | self-splicing fitness (ln) (37 °C) |
| --- | --- | --- |
| UGCAAGCAAUAUUACGAUGC | -3.55 ± 0.3 | – |
| UCUCAGCAAUAUUACGGUCC | -3 ± 0.31 | – |
| AACUAGCAAUAUUACGAUAG | -3.19 ± 0.19 | -1.77 ± 0.13 |
| GUCUAGCAAUAUUACGCAUG | -0.786 ± 0.1 | -0.64 ± 0.16 |
| UCAGAGCAAUAUUACGUCCA | -3.75 ± 0.47 | -2.25 ± 0.39 |
| UUGCAGCAAUAUUACGGGGA | -1.37 ± 0.13 | -0.636 ± 0.12 |
| AACCAGCAAUAUUACGAAUU | -0.517 ± 0.064 | -0.314 ± 0.081 |
| AGGUAGCAAUAUUACGUCAA | -2.28 ± 0.023 | -1.6 ± 0.036 |
| AAAGAGCAAUAUUACGGAUG | -4.57 ± 0.42 | -2.06 ± 0.23 |
| AACGAGCAAUAUUACGAUGC | -2.93 ± 0.2 | -1.52 ± 0.26 |
| ACGGAGCAAUAUUACGGCAC | -3.21 ± 0.28 | -2.43 ± 0.23 |
| CUUUAGCAAUAUUACGACUG | -0.867 ± 0.094 | 0.418 ± 0.15 |
| UGCGAGCAAUAUUACGGCUU | -1.76 ± 0.2 | -2.61 ± 0.33 |
| CGAUAGCAAUAUUACGUGAU | -3.02 ± 0.1 | -0.808 ± 0.088 |
| UCGAAGCAAUAUUACGGCGG | -1.14 ± 0.11 | -0.364 ± 0.17 |
| UGAAAGCAAUAUUACGUUCG | -1.51 ± 0.094 | -0.54 ± 0.11 |
| UCCAAGCAAUAUUACGUAGA | -0.92 ± 0.06 | 0.437 ± 0.092 |
| GUUGAGCAAUAUUACGUACG | -2.57 ± 0.39 | -2.31 ± 0.45 |
| GCUGAGCAAUAUUACGAUCG | – | -0.335 ± 0.25 |
| AGGUAGCAAUAUUACGAUCA | -0.205 ± 0.014 | -0.121 ± 0.033 |
| GUGUAGCAAUAUUACGUGCC | -3.46 ± 0.35 | -2.7 ± 0.32 |
| ACCGAGCAAUAUUACGACAA | -2.37 ± 0.22 | -2.4 ± 0.26 |
| CGUAAGCAAUAUUACGGUCG | -0.611 ± 0.12 | 0.212 ± 0.14 |
| GCGCAGCAAUAUUACGGGUG | -1.87 ± 0.083 | -1.65 ± 0.11 |

— the supplement of paper PMC7877785
